Source: article PMC4579573

Experiments:
[1] = molecular target: CfBRCC36–KIAA0157–BRCC45 triple complex (C. floridanus) (UniProt E2AXC7); test: SEC-MALS; complexes and subcomplexes purified from insect cells; size exclusion chromatography coupled to multi-angle light scattering (Figures S1B-E and S8E-G)
[2] = as above
[3] = molecular target: CfBRCC36(Ile212Asp)–KIAA0157ΔC heterodimer (C. floridanus)
[4] = molecular target: unlabeled K63 linked diUb (UniProt P0CG48)
[5] = molecular target: CfBRCC36–KIAA0157ΔC heterodimer (C. floridanus); test: SEC-MALS; complexes and subcomplexes purified from insect cells; size exclusion chromatography coupled to multi-angle light scattering (Figures S1B-E and S8E-G)
[6] = molecular target: Cf BRCC36–KIAA0157 binary complex (C. floridanus) (UniProt E2AXC7); test: as above
[7] = molecular target: CfBRCC36(Ala205Asp)–KIAA0157ΔC heterodimer (C. floridanus)
[8] = molecular target: CfBRCC36(Ala205Asp + Ile212Asp)–KIAA0157ΔC heterodimer (C. floridanus); test: SEC-MALS; complexes and subcomplexes purified from insect cells; size exclusion chromatography coupled to multi-angle light scattering (Figures S1B-E and S8E-G)
[9] = molecular target: H. Sapiens ARISC (BRCC36–Abraxas–BRCC45–MERIT40) complex (H. sapiens) (UniProt P46736); test: as above
[10] = molecular target: K63-linked diUb covalently coupled to AlexaFluor-488 (UniProt P0CG48); test: fluorescence polarisation; complex titrated against 10 nM AlexaFluor-488 K63-linked diUb tracer

Q: Which stoichiometry N [1] does the source give for “CfBRCC36–KIAA0157–BRCC45 triple complex (from UniProt E2AXC7 1-253)” here?
A: Its stoichiometry N is 2.

Q: With “CfBRCC36(Ala205Asp)–KIAA0157ΔC heterodimer” as the substance, how does the “percent eluting as monomers of heterodimers” value [2] read?
A: The value was 70% and 36% of proteins, respectively, eluting as monomers of heterodimers.

Q: With “CfBRCC36(Ile212Asp)–KIAA0157ΔC heterodimer (complex)” as the substance, how does the cleavage of a K63-linked diUb fluorigenic substrate in vitro, at near saturating substrate concentrations (>10 μM diUb) (fold less active than WT) [3] read?
A: The cleavage of a K63-linked diUb fluorigenic substrate in vitro, at near saturating substrate concentrations (>10 μM diUb) (fold less active than WT) was 10.

Q: What does the source list for “CfBRCC36–KIAA0157ΔC heterodimer (complex)”?
A: Km, Michaelis-Menten kinetic analysis for cleavage of K63 diUb (Figure 6B) [4]: 4.2 µM; stoichiometry N [5]: 2

Q: With “Cf BRCC36–KIAA0157 binary complex (from UniProt E2AXC7 1-253)” as the substance, how does the stoichiometry N [6] read?
A: The stoichiometry N was 2.

Q: Which “percent eluting as a monomer of heterodimers” value [2] does the source give for “CfBRCC36(Ala205Asp + Ile212Asp)–KIAA0157ΔC heterodimer” here?
A: Its value is 85% major peak.

Q: For “CfBRCC36(Ala205Asp)–KIAA0157ΔC heterodimer (complex)”, which cleavage of a K63-linked diUb fluorigenic substrate in vitro, at near saturating substrate concentrations (>10 μM diUb) (fold less active than WT) [7] is on record?
A: Its cleavage of a K63-linked diUb fluorigenic substrate in vitro, at near saturating substrate concentrations (>10 μM diUb) (fold less active than WT) is 10.

Q: Which percent eluting as super dimers [8] does the source give for “CfBRCC36(Ala205Asp + Ile212Asp)–KIAA0157ΔC heterodimer (complex)” here?
A: The percent eluting as super dimers was 15%.

Q: For “CfBRCC36(Ile212Asp)–KIAA0157ΔC heterodimer”, which “percent eluting as monomers of heterodimers” value [2] is on record?
A: The value was 70% and 36% of proteins, respectively, eluting as monomers of heterodimers.

Q: For “H. Sapiens ARISC (BRCC36–Abraxas–BRCC45–MERIT40) complex (from UniProt P46736 1-316; Q6UWZ7 1-409; Q9NXR7 1-383; Q9NWV8 1-329)”, which stoichiometry N [9] is on record?
A: Its stoichiometry N is 2.

Q: With “BRCC36 (E30A+A205D+I212D)-KIAA0157ΔC complex (from UniProt E2AXC7 1-253)” as the substance, how does the Kd [10] read?
A: Its Kd is 2.2 µM.

Q: With “BRCC36(E30A)-KIAA0157ΔC complex (from UniProt E2AXC7 1-253)” as the substance, how does the Kd [10] read?
A: Its Kd is 2.4 µM.
